The results in this text go back to IntAct's records for PubMed 27857056.

The labels stand for the following.
B1: UDP-glucuronosyltransferase 2B7 (Homo sapiens), P16662 (parent)
chain: MSVKWTSVILLIQLSFCFSSGNCGKVLVWAAEYSHWMNIKTILDELIQRGHEVTVLASSASILFDPNNSSALKIEIYPTSLTKTELENFIMQQIKRWSDLPKDTFWLYFSQVQEIMSIFGDITRKFCKDVVSNKKFMKKVQESRFDVIFADAIFPCSELLAELFNIPFVYSLSFSPGYTFEKHSGGFIFPPSYVPVVMSELTDQMTFMERVKNMIYVLYFDFWFEIFDMKKWDQFYSEVLGRPTTLSETMGKADVWLIRNSWNFQFPYPLLPNVDFVGGLHCKPAKPLPKEMEDFVQSSGENGVVVFSLGSMVSNMTEERANVIASALAQIPQKVLWRFDGNKPDTLGLNTRLYKWIPQNDLLGHPKTRAFITHGGANGIYEAIYHGIPMVGIPLFADQPDNIAHMKARGAAVRVDFNTMSSTDLLNALKRVINDPSYKENVMKLSRIQHDQPVKPLDRAVFWIEFVMRHKGAKHLRVAAHDLTWFQYHSLDVIGFLLVCVATVIFIVTKCCLFCFWKFARKAKKGKND
partner: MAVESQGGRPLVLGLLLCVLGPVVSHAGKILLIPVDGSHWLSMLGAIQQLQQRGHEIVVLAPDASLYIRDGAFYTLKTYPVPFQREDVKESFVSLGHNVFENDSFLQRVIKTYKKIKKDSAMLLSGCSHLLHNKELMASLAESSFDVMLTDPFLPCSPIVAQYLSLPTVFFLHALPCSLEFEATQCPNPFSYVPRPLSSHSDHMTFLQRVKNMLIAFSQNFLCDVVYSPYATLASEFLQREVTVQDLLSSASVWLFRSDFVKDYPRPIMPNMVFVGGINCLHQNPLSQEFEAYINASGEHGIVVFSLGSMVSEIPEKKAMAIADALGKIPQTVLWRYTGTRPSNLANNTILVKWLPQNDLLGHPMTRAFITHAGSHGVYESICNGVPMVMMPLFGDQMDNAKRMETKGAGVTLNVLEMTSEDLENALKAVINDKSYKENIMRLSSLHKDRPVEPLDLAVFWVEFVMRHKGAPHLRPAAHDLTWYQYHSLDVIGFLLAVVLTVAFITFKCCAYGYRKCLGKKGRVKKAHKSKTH
B2: UDP-glucuronosyltransferase 1A9 (Homo sapiens), O60656-1 (parent)
chain: MACTGWTSPLPLCVCLLLTCGFAEAGKLLVVPMDGSHWFTMRSVVEKLILRGHEVVVVMPEVSWQLGRSLNCTVKTYSTSYTLEDLDREFKAFAHAQWKAQVRSIYSLLMGSYNDIFDLFFSNCRSLFKDKKLVEYLKESSFDAVFLDPFDNCGLIVAKYFSLPSVVFARGILCHYLEEGAQCPAPLSYVPRILLGFSDAMTFKERVRNHIMHLEEHLLCHRFFKNALEIASEILQTPVTEYDLYSHTSIWLLRTDFVLDYPKPVMPNMIFIGGINCHQGKPLPMEFEAYINASGEHGIVVFSLGSMVSEIPEKKAMAIADALGKIPQTVLWRYTGTRPSNLANNTILVKWLPQNDLLGHPMTRAFITHAGSHGVYESICNGVPMVMMPLFGDQMDNAKRMETKGAGVTLNVLEMTSEDLENALKAVINDKSYKENIMRLSSLHKDRPVEPLDLAVFWVEFVMRHKGAPHLRPAAHDLTWYQYHSLDVIGFLLAVVLTVAFITFKCCAYGYRKCLGKKGRVKKAHKSKTH
partner: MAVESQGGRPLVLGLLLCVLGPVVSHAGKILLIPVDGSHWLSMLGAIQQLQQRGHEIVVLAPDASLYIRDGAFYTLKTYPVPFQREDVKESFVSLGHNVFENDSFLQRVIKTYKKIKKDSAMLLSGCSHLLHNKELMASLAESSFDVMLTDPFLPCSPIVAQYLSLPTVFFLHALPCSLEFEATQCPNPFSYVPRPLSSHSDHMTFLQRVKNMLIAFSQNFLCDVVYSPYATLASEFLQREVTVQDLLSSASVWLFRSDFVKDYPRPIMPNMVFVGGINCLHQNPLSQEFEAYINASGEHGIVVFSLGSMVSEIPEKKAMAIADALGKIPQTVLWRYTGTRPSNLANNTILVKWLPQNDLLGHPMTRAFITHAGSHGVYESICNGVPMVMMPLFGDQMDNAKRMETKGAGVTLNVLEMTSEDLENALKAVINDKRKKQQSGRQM
B3: UDP-glucuronosyltransferase 1A9 (Homo sapiens), O60656-1 (parent)
chain: B2 chain
partner: B1 partner

In one experiment the parent is B1. The note with it: with UGT1A1, P22309-1.
Regarding MSVKWTSVILLIQLSFCFSSGNCGKVLVWAAEYSHWMNIKTILDELIQRGHEVTVLASSASILFDPNNSSALKIEIYPTSLTKTELENFIMQQIKRWSDLPKDTFWLYFSQVQEIMSIFGDITRKFCKDVVSNKKFMKKVQESRFDVIFADAIFPCSELLAELFNIPFVYSLSFSPGYTFEKHSGGFIFPPSYVPVVMSELTDQMTFMERVKNMIYVLYFDFWFEIFDMKKWDQFYSEVLGRPTTLSETMGKADVWLIRNSWNFQFPYPLLPNVDFVGGLHCKPAKPLPKEMEDFVQSSGENGVVVFSLGSMVSNMTEERANVIASALAQIPQKVLWRFDGNKPDTLGLNTRLYKWIPQNDLLGHPKTRAFITHGGANGIYEAIYHGIPMVGIPLFANQPDNIAHMKARGAAVRVDFNTMSSTDLLNALKRVINDPSYKENVMKLSRIQHDQPVKPLDRAVFWIEFVMRHKGAKHLRVAAHDLTWFQYHSLDVIGFLLVCVATVIFIVTKCCLFCFWKFARKAKKGKND [D398N], the “effect of a mutation on the interaction” value was “with no effect”.

MSVKWTSVILLIQLSFCFSSGNCGKVLVWAAEYSHWMNIKTILDELIQRGHEVTVLASSASILFDPNNSSSLKIEIYPTSLTKTELENFIMQQIKRWSDLPKDTFWLYFSQVQEIMSIFGDITRKFCKDVVSNKKFMKKVQESRFDVIFADAIFPCSELLAELFNIPFVYSLSFSPGYTFEKHSGGFIFPPSYVPVVMSELTDQMTFMERVKNMIYVLYFDFWFEIFDMKKWDQFYSEVLGRPTTLSETMGKADVWLIRNSWNFQFPYPLLPNVDFVGGLHCKPAKPLPKEMEDFVQSSGENGVVVFSLGSMVSNMTEERANVIASALAQIPQKVLWRFDGNKPDTLGLNTRLYKWIPQNDLLGHPKTRAFITHGGANGIYEAIYHGIPMVGIPLFADQPDNIAHMKARGAAVRVDFNTMSSTDLLNALKRVINDPSYKENVMKLSRIQHDQPVKPLDRAVFWIEFVMRHKGAKHLRVAAHDLTWFQYHSLDVIGFLLVCVATVIFIVTKCCLFCFWKFARKAKKGKND [A71S]: the “effect of a mutation on the interaction” value is listed as “with no effect”.

Variants of B2 are the subject of a further experiment. The note with it: with UGT1A1, P22309-2.
MAYTGWTSPLPLCVCLLLTCGFAEAGKLLVVPMDGSHWFTMRSVVEKLILRGHEVVVVMPEVSWQLGRSLNCTVKTYSTSYTLEDLDREFKAFAHAQWKAQVRSIYSLLMGSYNDIFDLFFSNCRSLFKDKKLVEYLKESSFDAVFLDPFDNCGLIVAKYFSLPSVVFARGILCHYLEEGAQCPAPLSYVPRILLGFSDAMTFKERVRNHIMHLEEHLLCHRFFKNALEIASEILQTPVTEYDLYSHTSIWLLRTDFVLDYPKPVMPNMIFIGGINCHQGKPLPMEFEAYINASGEHGIVVFSLGSMVSEIPEKKAMAIADALGKIPQTVLWRYTGTRPSNLANNTILVKWLPQNDLLGHPMTRAFITHAGSHGVYESICNGVPMVMMPLFGDQMDNAKRMETKGAGVTLNVLEMTSEDLENALKAVINDKSYKENIMRLSSLHKDRPVEPLDLAVFWVEFVMRHKGAPHLRPAAHDLTWYQYHSLDVIGFLLAVVLTVAFITFKCCAYGYRKCLGKKGRVKKAHKSKTH [C3Y]: the “effect of a mutation on the interaction” value is “with no effect”.

In the next experiment the parent is B3. The following applies: with UGT1A1, P22309-1.
As to MAYTGWTSPLPLCVCLLLTCGFAEAGKLLVVPMDGSHWFTMRSVVEKLILRGHEVVVVMPEVSWQLGRSLNCTVKTYSTSYTLEDLDREFKAFAHAQWKAQVRSIYSLLMGSYNDIFDLFFSNCRSLFKDKKLVEYLKESSFDAVFLDPFDNCGLIVAKYFSLPSVVFARGILCHYLEEGAQCPAPLSYVPRILLGFSDAMTFKERVRNHIMHLEEHLLCHRFFKNALEIASEILQTPVTEYDLYSHTSIWLLRTDFVLDYPKPVMPNMIFIGGINCHQGKPLPMEFEAYINASGEHGIVVFSLGSMVSEIPEKKAMAIADALGKIPQTVLWRYTGTRPSNLANNTILVKWLPQNDLLGHPMTRAFITHAGSHGVYESICNGVPMVMMPLFGDQMDNAKRMETKGAGVTLNVLEMTSEDLENALKAVINDKSYKENIMRLSSLHKDRPVEPLDLAVFWVEFVMRHKGAPHLRPAAHDLTWYQYHSLDVIGFLLAVVLTVAFITFKCCAYGYRKCLGKKGRVKKAHKSKTH [C3Y], the “effect of a mutation on the interaction” value is given as “with no effect”.

On to MACTGWTSPLPLCVCLLLTCGFAEAGKLLVVPMDGSHWFTMRSVVEKLILRGHEVVVVMPEVSWQLGRSLNCTVKTYSTSYTLEDLDREFKAFAHAQWKAQVRSIYSLLMGSYNDIFDLFFSNCRSLFKDKKLVEYLKESSFDAVFLDPFDNCGLIVAKYFSLPSVVFARGILCHYLEEGAQCPAPLSYVPRILLGFSDAMTFKERVRNHIMHLEEHLLCHRFFKNALEIASEILQTPVTEYDLYSHTSIWLLRTNFVLDYPKPVMPNMIFIGGINCHQGKPLPMEFEAYINASGEHGIVVFSLGSMVSEIPEKKAMAIADALGKIPQTVLWRYTGTRPSNLANNTILVKWLPQNDLLGHPMTRAFITHAGSHGVYESICNGVPMVMMPLFGDQMDNAKRMETKGAGVTLNVLEMTSEDLENALKAVINDKSYKENIMRLSSLHKDRPVEPLDLAVFWVEFVMRHKGAPHLRPAAHDLTWYQYHSLDVIGFLLAVVLTVAFITFKCCAYGYRKCLGKKGRVKKAHKSKTH [D256N], for which the “effect of a mutation on the interaction” value is given as “with no effect”.
